Test results reported in the supplement of paper PMC12764529.
± gives the half width of the 95% confidence interval.

Experiments:
[1] = folding stability dG unfold (combined trypsin and chymotrypsin); higher = more stable
In short: (§1)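 K50 was inferred by Bayesian fitting of sequencing counts obtained after protease digestion of designed mini-proteins. Unfolding free energy was derived by comparison with a sequence-predicted unfolded-state K50 and a shared folded-state K50, for each protease or both combined. The mini-proteins were under 80 residues, had no cysteine, were carried in a PA-tagged cDNA display construct, and were kept only if AlphaFold2 dimer inter-PAE exceeded 15.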

[2] = folding stability dG unfold from trypsin proteolysis; higher = more stable
Protocol: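 Folding stability of de novo designed mini-proteins (<80 aa, no Cys; designed by TrROS, TrMRF, ProteinMPNN and the joint model) was measured by cDNA display proteolysis with trypsin and chymotrypsin. Each protease was used at 11 concentrations in a threefold dilution series plus a no-protease condition. K50 was inferred by Bayesian fitting of sequencing counts, and dG unfold was derived against a sequence-predicted unfolded-state K50 (Tsuboyama et al. method). Sequences shown include variable-length N-terminal GS-type padding (SAGGSAGG...) inside a display construct carrying a PA tag. Rows were kept only if the AF2 dimer inter-PAE was >15, to exclude likely homo-oligomers.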

[3] = folding stability dG unfold from chymotrypsin proteolysis; higher = more stable
In short: as §1

Sequence	folding stability dG unfold [1] [kcal/mol]	folding stability dG unfold [2] [kcal/mol]	folding stability dG unfold [3] [kcal/mol]
SGMTTSLGKSTTTTLPDGTTVKTEVKLTRPSSGTVVVTTDTTTVTPGTGTTTTTPTTTVVPVPPGVPGLLSA [r9_709_JUSTAS]	< -1	-0.522 ± 0.051	–
SAGGSAGGSADIELLGESVDPATGRSSKTFQAPGKIIVETTAPDGTKTTSVVDPNSNVTIPLSAGGSAGGSA [r18_230_JUSTAS]	< -1	-0.522 ± 0.11	–
SAGWRRIPPGRPIRIRLKGNGEEITIPIPEGAEVEPDPDNNNVMIWFREDGKEWSMNFKNGRIDDIEPVSAG [r5_22_TrROS]	< -1	-0.194 ± 0.32	–
SKMKIKIEITEVYPEGKTIVVKAEIEIDGKTIEMEMTIKLPNGEEYRIRMRFVRRKDGRLEMEIEVEKLPSA [r9_255_TrROS_Hall]	> 6	5.33 ± 0.51	–
SAGGSAGGSAGGKKKVKVGNKEVEIVKEEEKEGKLIIKDKKTGKKIEISKEDLKKKKIKLSAGGSAGGSAGG [r7_391_TrROS_Hall]	< -1	-0.42 ± 0.52	–
SAGGSAYGKKKNDPDGNPKYEMEPQPTIEVPVTIPIFDNNNNPLLEIPIPASMPISDINDEIKDLFSAGGSA [r15_309_TrROS]	< -1	-1.57 ± 0.7	–
SPIVTDLPPKEATRVEVEALVEELEAKGEPPREVVVYDPSRGVPLATIPVTSREELLAAVEAGRPFRVLLSA [r9_718_JUSTAS]	< -1	-0.697 ± 0.31	–
SAGGSAGGSAGMPLPIKTLTEVSTVEGVGITLTALDNGLVIVEKSDGKVTVIPLSAYEAQSAGGSAGGSAGG [r11_254_JUSTAS]	-0.0335 ± 0.073	0.643 ± 0.04	–
SAGGSAGGAEELAEELERALPEGEVTEVRVEVVELPEGEPEVVVTVRVKRDGKEVKELPVIRVPSAGGSAGG [r6_630_TrROS_Hall]	-0.997 ± 0.44	-0.492 ± 0.16	–
SAGGSAGGSAGGKRITIMFNTPEQIEELAENLGFDDIEVEPFPNEDGRPYVQVTIRLPPSAGGSAGGSAGGS [r10_494_TrROS]	< -1	-0.703 ± 0.15	–
SMKALVLELPEEKVVVVFETDELKVVPIPVKDKEEAKEKIEELVKELEEETGKKPEVVVVEVDEDEELPVSA [r9_786_TrMRF]	< -1	-0.0691 ± 0.16	–
SAGGSAGGSSPIVVEEEPDRYVITIPPSQPELVEEVLEKLGLPAEDITRTLIPEGLVRYEVPGSAGGSAGGS [r12_493_JUSTAS]	< -1	-0.419 ± 0.28	–
SADFKPEGPSNNALVWKNPNSGKMFMIYPSDDNIEVQEIEYDPGNNKPEPETERVPLPEDDRDDLKDLLSAG [r14_245_TrROS]	< -1	-0.663 ± 0.14	–
SAGGGMVERTETVTVPLSDVLAGRPPTPEAIAAARFPDTAEVTLETTEVPEDDTVTVTLTVRVPPELLSAGG [r13_862_JUSTAS]	-0.0656 ± 0.21	0.472 ± 0.069	–
SAGGSAGGSAALGDESLHRPVPVVSTSPVTTTTTLTLTPPNGVTVTESVTTTTTVYGSGAASAGGSAGGSAG [r3_380_JUSTAS]	0.172 ± 0.13	0.553 ± 0.025	–
SAGGSAGGSAGKKRKIEINIIVPPEGAKQMAKMIKDELAQRNRDVDIEIKIIPVPPGQPLSAGGSAGGSAGG [r11_973_TrROS]	< -1	0.434 ± 0.16	–
SAGGSAGGSAGMLLLTFPERGISYEIKLGDKEEEREADPEEVEKLIAELPNYEVKEVELLSAGGSAGGSAGG [r11_57_JUSTAS]	0.288 ± 0.26	0.559 ± 0.1	–
SAGGSAGGMTAEEVAEWIADEFMENHPNIEIKPVATEDGEVKIDIRHPNSGMTHTFKIPPGQPLSAGGSAGG [r6_446_TrROS]	< -1	-0.796 ± 0.19	–
SAGGSAGGSAGGSSVPADTVVELEFKDEKGEPLLITVRVTTKDSGVDRTVLEVRPPELLSAGGSAGGSAGGS [r10_744_JUSTAS]	-0.424 ± 0.17	0.00915 ± 0.05	–
SAGGSAMPPGQPWKIKRTIPFKDPNGWKITIYRMPDDGHVWVRWEPPNGGEREVWMPAEEAEDALKSAGGSA [r15_2_TrROS]	0.307 ± 0.58	0.902 ± 0.23	–
SAGGSAGGAVPSYIKDIETIPETSALIVNAESEEIVKEFLEKLGLKIESKEVDEDKIILPAKIESAGGSAGG [r6_381_JUSTAS]	0.0269 ± 0.35	0.774 ± 0.099	–
SAGGSAGGSAGGITPEEIEKIREAPLPNGAPIKDVFVEGDYAVVLFETEPDLYLIVIPNKSAGGSAGGSAGG [r7_995_TrMRF]	-0.907 ± 0.57	-0.121 ± 0.12	–
SAGGSAGGSAGGLEVSIPGWTVTKTEPLPDDSVLSTATKKNGPKFLISISPDEVTISPESAGGSAGGSAGGS [r10_312_JUSTAS]	< -1	-0.394 ± 0.16	–
SAGGSAEKPTATLRPVVLNYPEGPISRDPSGNVVNSPEELAKEVKEEILKKTGLPVEEIVVLVEPPSAGGSA [r15_415_JUSTAS]	< -1	-0.739 ± 0.061	–

Sequence	folding stability dG unfold [1] [kcal/mol]	folding stability dG unfold [2] [kcal/mol]	folding stability dG unfold [3] [kcal/mol]
SAGGSAGGSAGGTKVIPFDSVEEILEEVKKDPNKPRYIRMPGAWIKINKPGDITEIEPWPSAGGSAGGSAGG [r7_532_TrROS]	< -1	-0.655 ± 0.46	–
SAGGSAGGSAGGPKFKFEDVMVQRNPEPERAYVPITYEDPGKERPIMIPIPPNQTLDEISAGGSAGGSAGGS [r10_304_TrROS]	< -1	0.0428 ± 0.068	–
SAGGSALPPDQRLVVIDLGREPGVTPDEPVEVPEELIEKIKKENPNVKLVEVKHEGDKVTLYIAIKSAGGSA [r2_383_JUSTAS]	< -1	-0.0124 ± 0.48	–
SNPWQIKFRNPNRPVEIPIQMNPDDGYVGISVRMRKPGKPKTHTITYKVKNIEDLLDHLEDLPPGFEIEPSA [r9_713_TrROS]	-0.0771 ± 0.45	0.435 ± 0.27	–
SAGGSAPGKKTIKIEIIFPFPEEQAKEFADYIAKGIADETGHDPENIDIKVEVHVFDPANNEPRPFSAGGSA [r15_918_TrROS]	-0.511 ± 0.25	-0.236 ± 0.2	–
SAGGSAGGSAGPGEPVPIRLKIYGPNGQPHTHPFPVKNPEEFKDNLRFPVPNGWAVEIEYSAGGSAGGSAGG [r11_671_TrROS]	< -1	-0.719 ± 0.37	–
SAGGSAGGSSPEIPLPPEIAEEIEVPGSGTTVLLHPSTGLVLYKPPPEELAVGRYDPSTGVLESAGGSAGGS [r12_420_JUSTAS]	0.475 ± 0.15	0.985 ± 0.051	–
SAGGSAGGSAGSYEFDPSKSALVRVTLQPPDGVPVEIEIPVEELEEILPGDRPVLSIEVSSAGGSAGGSAGG [r17_449_JUSTAS]	-0.838 ± 0.51	0.0674 ± 0.14	–
SMGLTKKERVITIVKEAYAKNPDKKITLRYADIEATTPEKMSAEEIEKLLKEVTGIKDIKIYPVKPDDPESA [r9_738_TrMRF]	< -1	0.0464 ± 0.25	–
SAGGSAGGSPDNITFKVPDGPVRIENGNNEQEFPPGKTQTIPPKNPNNMRIEAFPPNIIKITPSAGGSAGGS [r20_150_TrROS]	< -1	-0.793 ± 0.45	–
MEEVTIEIEVKGLSEEEIKELAEKLAEELREAGYEVEITKVEVLPDGSVKVTIKVRKGMSEEELKKLLEKLS [r1_485_TrROS_Hall]	–	3.65 ± 0.36	–
SKPGDKLEEVTIKIYNPGNGRPREITIEKHEDGWRAQVMNPPGQTKEIPPNDTLEDLLNLPPNYYIEIIPSA [r9_781_TrROS]	–	-0.271 ± 0.2	–
SAGGSWIPVEEIAENFPNVEVNTHPNGNIMVRFTHKRKKPNGGKKKHNMTVQLDPEDGRLQSIHPYSAGGSA [r2_104_TrROS]	–	-0.0297 ± 0.48	–
SAGGSAGGSSKTVPLKSEEEVKAVLEKLPPDAEYTVTDSEGKSKKVSPDEISFTPDPLTITVSSAGGSAGGS [r12_907_JUSTAS]	-0.131 ± 0.092	–	0.362 ± 0.043
SAGGSAGGSAGKLKVEIEERNGKLVLKVKLELEPEPEPVEVEKKVEVKTETKMSLEELKKSAGGSAGGSAGG [r17_51_TrROS_Hall]	0.471 ± 0.096	–	0.952 ± 0.058
SAGGMPKKITKLELLSETYDPLTNTYTVTVRATFDDGTEKVIELTLPRSEYEKLSKEEIKKRAIDLLLSAGG [r13_512_JUSTAS]	5.52 ± 0.34	–	5.29 ± 0.12
SAGSVTVEVFGPGRLLATYTLDDTTTTVAVPPEPVRVRIRSPGDDAEATADADPATGVVTVTVPADLGLSAG [r5_469_JUSTAS]	0.165 ± 0.064	–	0.679 ± 0.05
SAGGSAGGSAGGSLVSTSPLPSSSTLVTEKGPSPEVTVTVVTVKPGGSRSVTTLPVSESSAGGSAGGSAGGS [r10_140_JUSTAS]	-0.143 ± 0.12	–	0.474 ± 0.057
SAGGSAGGSAGGKTLSKEEALKKAKELAEKGEKVKIEVKNKKTKKTETIEITKEELEKLSAGGSAGGSAGGS [r10_779_TrROS_Hall]	0.151 ± 0.44	–	0.47 ± 0.13
SSPVVVSESTDPNSSTKTITVTLPPNARVTLTLPGEPVETRPQPDATATLTTGPDALDITIEPLPPGVPLSA [r9_221_JUSTAS]	-0.714 ± 0.24	–	0.474 ± 0.1
SAGGSAGGSAMGPPVRRVTITLSDGTRYEVDVAPDDSVAAVRAPLAAHPDVAAVTELTVEPSAGGSAGGSAG [r3_308_JUSTAS]	0.282 ± 0.084	–	0.99 ± 0.044
SAGGSAGGSAGSMPVTVTERVVTSETPLPTDELAVKTTVTYPDGTAADFTRLLPPDAPLESAGGSAGGSAGG [r11_429_JUSTAS]	0.158 ± 0.18	–	0.875 ± 0.042
SAGGSAPVIVKEASLEEIKELKKKGVKKIILVEKNPEIAEKIKKEFEKEDDIPIETVSEEEAKKLKSAGGSA [r15_243_TrMRF]	-0.718 ± 0.28	–	-0.294 ± 0.13
